Assay results from US20240392004A1 (IMMUNOWAKE, published 2024).
Substitutions are numbered along the chain they refer to. Numbers in names are those of the source. Where two headings read alike, the source gives them in different places.

T1: human IL-2 receptor (IL-2Rα, IL-2Rβ, IL-2Rγ) (human, UniProt P01589 22-272; P14784 27-551; P31785 23-369)
T1 sequence (looked up) 1: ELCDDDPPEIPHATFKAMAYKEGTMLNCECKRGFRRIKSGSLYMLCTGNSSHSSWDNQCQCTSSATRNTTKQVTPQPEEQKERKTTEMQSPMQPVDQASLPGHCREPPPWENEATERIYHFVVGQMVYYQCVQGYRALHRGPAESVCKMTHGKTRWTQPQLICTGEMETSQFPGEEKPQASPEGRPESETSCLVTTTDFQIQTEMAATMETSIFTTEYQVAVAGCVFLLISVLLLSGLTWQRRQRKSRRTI
T1 sequence (looked up) 2: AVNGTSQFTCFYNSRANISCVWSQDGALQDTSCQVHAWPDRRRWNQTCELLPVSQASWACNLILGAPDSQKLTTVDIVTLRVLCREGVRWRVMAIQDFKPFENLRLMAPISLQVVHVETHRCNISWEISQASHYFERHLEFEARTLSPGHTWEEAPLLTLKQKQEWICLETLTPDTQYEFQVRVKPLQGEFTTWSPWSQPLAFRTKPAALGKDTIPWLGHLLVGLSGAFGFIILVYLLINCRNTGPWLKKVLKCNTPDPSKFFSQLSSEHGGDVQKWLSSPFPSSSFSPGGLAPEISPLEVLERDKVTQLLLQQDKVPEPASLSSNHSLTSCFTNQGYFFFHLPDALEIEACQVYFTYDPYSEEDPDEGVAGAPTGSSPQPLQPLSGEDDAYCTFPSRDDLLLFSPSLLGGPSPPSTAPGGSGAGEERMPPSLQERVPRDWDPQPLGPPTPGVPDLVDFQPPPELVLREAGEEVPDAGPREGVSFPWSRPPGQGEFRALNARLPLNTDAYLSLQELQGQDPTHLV
T1 sequence (looked up) 3: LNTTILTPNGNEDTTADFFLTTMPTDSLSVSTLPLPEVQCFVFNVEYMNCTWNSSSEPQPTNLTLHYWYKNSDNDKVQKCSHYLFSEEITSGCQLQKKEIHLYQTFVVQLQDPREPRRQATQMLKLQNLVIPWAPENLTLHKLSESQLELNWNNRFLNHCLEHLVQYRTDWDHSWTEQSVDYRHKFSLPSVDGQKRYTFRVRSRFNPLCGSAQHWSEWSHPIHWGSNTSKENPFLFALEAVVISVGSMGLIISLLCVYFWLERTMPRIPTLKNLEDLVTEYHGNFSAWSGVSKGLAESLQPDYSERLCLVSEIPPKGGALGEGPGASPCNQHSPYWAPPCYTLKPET

B1: IL-2(L18R/Q22E/R38D/K43E/E61R/Q126T/S130R)/PD-L1(mut2)-Fc (Fc fusion)
chain 1: FTVTVPKDLYVVEYGSNMTIECKFPVEKQLDLAALQVYWMMEDKNIIQFVHGEEDLKVQHSSYRQRARLLKDQLSLGNAALQITDVKLQDAGVYTCLIAYKGADYKRITVKVNAPYNKINQRILVVDPVTSEHELTCQAEGYPKAEVIWTSSDHQVLSGKTTTTNSKREEKLFNVTSTLRINTTTNEIFYCTFRRLDPEENHTAELVIPELPLAHPPNERGGGGSGGGDKTHTCPPCPAPEDEGGPSVFLFPPKPKDTLMISRTPEVTCVVVDVSHEDPEVKFNWYVDGVEVHNAKTKPREEQYNSTYRVVSVLTVLHQDWLNGKEYKCKVSNKALPAPIEKTISKAKGQPREPQVYVYPPSREEMTKNQVSLTCLVKGFYPSDIAVEWESNGQPENNYKTTPPVLDEDGSFALVSKLTVDKSRWQQGNVFSCSVMHEALHNHYTQKSLSLSPGK
chain 2: FTVTVPKDLYVVEYGSNMTIECKFPVEKQLDLAALQVYWMMEDKNIIQFVHGEEDLKVQHSSYRQRARLLKDQLSLGNAALQITDVKLQDAGVYTCLIAYKGADYKRITVKVNAPYNKINQRILVVDPVTSEHELTCQAEGYPKAEVIWTSSDHQVLSGKTTTTNSKREEKLFNVTSTLRINTTTNEIFYCTFRRLDPEENHTAELVIPELPLAHPPNERGGGSGAPTSSSTKKTQLQLEHLRLDLEMILNGINNYKNPKLTDMLTFEFYMPKKATELKHLQCLERELKPLEEVLNLAQSKNFHLRPRDLISNINVIVLELKGSETTFMCEYADETATIVEFLNRWITFCTSIIRTLTGGGGSGGGDKTHTCPPCPAPEKKGGPSVFLFPPKPKDTLMISRTPEVTCVVVDVSHEDPEVKFNWYVDGVEVHNAKTKPREEQYNSTYRVVSVLTVLHQDWLNGKEYKCKVSNKALPAPIEKTISKAKGQPREPQVYVLPPSREEMTKNQVSLLCLVKGFYPSDIAVEWESNGQPENRYMTWPPVLDSDGSFFLYSKLTVDKSRWQQGNVFSCSVMHEALHNHYTQKSLSLSPGK
B2: PD-L1(mut2)-Fc/IL-12(E59A/F60A) (IL-12 at C' of Fc) (Fc fusion)
chain 1: FTVTVPKDLYVVEYGSNMTIECKFPVEKQLDLAALQVYWMMEDKNIIQFVHGEEDLKVQHSSYRQRARLLKDQLSLGNAALQITDVKLQDAGVYTCLIAYKGADYKRITVKVNAPYNKINQRILVVDPVTSEHELTCQAEGYPKAEVIWTSSDHQVLSGKTTTTNSKREEKLFNVTSTLRINTTTNEIFYCTFRRLDPEENHTAELVIPELPLAHPPNERGGGGSGGGDKTHTCPPCPAPEDEGGPSVFLFPPKPKDTLMISRTPEVTCVVVDVSHEDPEVKFNWYVDGVEVHNAKTKPREEQYNSTYRVVSVLTVLHQDWLNGKEYKCKVSNKALPAPIEKTISKAKGQPREPQVYVYPPSREEMTKNQVSLTCLVKGFYPSDIAVEWESNGQPENNYKTTPPVLDEDGSFALVSKLTVDKSRWQQGNVFSCSVMHEALHNHYTQKSLSLSPGKGGGGSGGGIWELKKDVYVVELDWYPDAPGEMVVLTCDTPEEDGITWTLDQSSEVLGSGKTLTIQVKAAGDAGQYTCHKGGEVLSHSLLLLHKKEDGIWSTDILKDQKEPKNKTFLRCEAKNYSGRFTCWWLTTISTDLTFSVKSSRGSSDPQGVTCGAATLSAERVRGDNKEYEYSVECQEDSACPAAEESLPIEVMVDAVHKLKYENYTSSFFIRDIIKPDPPKNLQLKPLKNSRQVEVSWEYPDTWSTPHSYFSLTFCVQVQGKSKREKKDRVFTDKTSATVICRKNASISVRAQDRYYSSSWSEWASVPCSGGGGSGGGSGGGGSRNLPVATPDPGMFPCLHHSQNLLRAVSNMLQKARQTLEFYPCTSEEIDHEDITKDKTSTVEACLPLELTKNESCLNSRETSFITNGSCLASRKTSFMMALCLSSIYEDLKMYQVEFKTMNAKLLMDPKRQIFLDQNMLAVIDELMQALNFNSETVPQKSSLEEPDFYKTKIKLCILLHAFRIRAVTIDRVMSYLNAS
chain 2: B1 chain 1 with D242K, E243K, Y359L, T374L, N398R, K400M, T402W, E408S, A413F, V415Y
B3: IL-2(L18R/Q22E/R38D/K43E/E61R)/PD-L1(mut2)-Fc/IL-12(E59A/F60A) (Fc fusion)
chain 1: B2 chain 1
chain 2: B1 chain 2 with T351Q, R355S
B4: IL-2(R38D/K43E/E61R/Q126T)/IL-12(E59A/F60A)/PD-L1(mut2)-Fc (Fc fusion)
chain 1: FTVTVPKDLYVVEYGSNMTIECKFPVEKQLDLAALQVYWMMEDKNIIQFVHGEEDLKVQHSSYRQRARLLKDQLSLGNAALQITDVKLQDAGVYTCLIAYKGADYKRITVKVNAPYNKINQRILVVDPVTSEHELTCQAEGYPKAEVIWTSSDHQVLSGKTTTTNSKREEKLFNVTSTLRINTTTNEIFYCTFRRLDPEENHTAELVIPELPLAHPPNERGGGGSGGGIWELKKDVYVVELDWYPDAPGEMVVLTCDTPEEDGITWTLDQSSEVLGSGKTLTIQVKAAGDAGQYTCHKGGEVLSHSLLLLHKKEDGIWSTDILKDQKEPKNKTFLRCEAKNYSGRFTCWWLTTISTDLTFSVKSSRGSSDPQGVTCGAATLSAERVRGDNKEYEYSVECQEDSACPAAEESLPIEVMVDAVHKLKYENYTSSFFIRDIIKPDPPKNLQLKPLKNSRQVEVSWEYPDTWSTPHSYFSLTFCVQVQGKSKREKKDRVFTDKTSATVICRKNASISVRAQDRYYSSSWSEWASVPCSGGGGSGGGSGGGGSRNLPVATPDPGMFPCLHHSQNLLRAVSNMLQKARQTLEFYPCTSEEIDHEDITKDKTSTVEACLPLELTKNESCLNSRETSFITNGSCLASRKTSFMMALCLSSIYEDLKMYQVEFKTMNAKLLMDPKRQIFLDQNMLAVIDELMQALNFNSETVPQKSSLEEPDFYKTKIKLCILLHAFRIRAVTIDRVMSYLNASGGGGSGGGDKTHTCPPCPAPEDEGGPSVFLFPPKPKDTLMISRTPEVTCVVVDVSHEDPEVKFNWYVDGVEVHNAKTKPREEQYNSTYRVVSVLTVLHQDWLNGKEYKCKVSNKALPAPIEKTISKAKGQPREPQVYVYPPSREEMTKNQVSLTCLVKGFYPSDIAVEWESNGQPENNYKTTPPVLDEDGSFALVSKLTVDKSRWQQGNVFSCSVMHEALHNHYTQKSLSLSPGK
chain 2: B1 chain 2 with R243L, E247Q, R355S
B5: IL-2(L18R/Q22E/R38D/K43E/E61R)/IL-12(E59A/F60A)/PD-L1(mut2)-Fc (Fc fusion)
chain 1: B4 chain 1
chain 2: B1 chain 2 with T351Q, R355S

Tests used:
Test in all cases: cell-based or functional assay
[1] = target: T2, human PD-1 on cells (HEK-PD-1 reporter cells; activated PBMC) (human, UniProt Q15116 25-288)
[2] = target: T1, human IL-2 receptor (IL-2Rα, IL-2Rβ, …)
[3] = target: human IL-12 receptor complex (IL-12Rβ1 and IL-12Rβ2) (human, UniProt P42701 24-662; Q99665 24-862)
[4] = target: T2, human PD-1 on cells (HEK-PD-1 reporter …); remark: listed apart in the source
[5] = target: T1, human IL-2 receptor (IL-2Rα, IL-2Rβ, …); remark: listed apart in the source

T2 sequence (Q15116 25-288): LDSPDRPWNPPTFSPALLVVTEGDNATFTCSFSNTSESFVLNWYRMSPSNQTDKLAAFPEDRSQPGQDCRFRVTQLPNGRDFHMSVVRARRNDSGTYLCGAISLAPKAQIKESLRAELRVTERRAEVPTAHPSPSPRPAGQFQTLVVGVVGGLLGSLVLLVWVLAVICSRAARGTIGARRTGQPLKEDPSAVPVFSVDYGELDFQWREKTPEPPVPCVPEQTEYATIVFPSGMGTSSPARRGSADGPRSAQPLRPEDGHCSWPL
Chain of human IL-12 receptor complex (IL-12Rβ1 and IL-12Rβ2) (Q99665 24-862, chain 2 of 2, other chains not shown): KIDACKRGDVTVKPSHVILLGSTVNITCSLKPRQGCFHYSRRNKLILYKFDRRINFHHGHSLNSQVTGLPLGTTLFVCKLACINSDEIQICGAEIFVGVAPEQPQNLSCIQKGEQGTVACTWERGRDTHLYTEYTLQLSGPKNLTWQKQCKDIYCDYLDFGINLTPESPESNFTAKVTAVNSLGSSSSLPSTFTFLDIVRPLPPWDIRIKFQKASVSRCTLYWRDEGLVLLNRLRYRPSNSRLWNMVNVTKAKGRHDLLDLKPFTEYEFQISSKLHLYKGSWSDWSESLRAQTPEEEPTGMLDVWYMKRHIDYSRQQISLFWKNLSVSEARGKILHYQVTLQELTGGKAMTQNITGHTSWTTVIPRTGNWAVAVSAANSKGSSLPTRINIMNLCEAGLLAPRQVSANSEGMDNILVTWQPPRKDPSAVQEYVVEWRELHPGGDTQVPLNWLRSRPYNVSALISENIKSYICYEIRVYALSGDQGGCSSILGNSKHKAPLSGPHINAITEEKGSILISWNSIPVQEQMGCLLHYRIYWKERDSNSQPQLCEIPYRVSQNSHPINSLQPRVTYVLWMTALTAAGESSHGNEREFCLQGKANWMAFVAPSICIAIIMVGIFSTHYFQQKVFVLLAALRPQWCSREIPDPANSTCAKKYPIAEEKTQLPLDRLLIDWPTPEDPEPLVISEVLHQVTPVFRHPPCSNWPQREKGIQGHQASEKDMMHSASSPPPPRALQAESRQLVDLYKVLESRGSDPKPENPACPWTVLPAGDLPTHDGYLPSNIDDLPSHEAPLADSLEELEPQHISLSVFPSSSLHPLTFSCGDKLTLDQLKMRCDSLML

IL-2 signal transduction, HEK-IL-2-PD-1 [1] [%] | IL-2 signal transduction, HEK-IL-2 [2] [%] | IL-12 signal transduction, HEK-IL-12 [3] [%] | IL-2 signal transduction, HEK-IL-2-PD-1 [4] [%] | IL-12 signal transduction, HEK-IL-12-PD-1 [4] [%] | IL-2 signal transduction, HEK-IL-2 [5] [%] | Binder
< 0.1 | < 0.1 | – | – | – | – | B1
– | – | 1 | < 0.1 | 25 | < 0.1 | B2
– | – | 2 | 32 | 27 | 3 | B3
– | – | < 0.2 | 20 | 25 | 2 | B4
– | – | < 0.2 | 35 | 19 | 4 | B5
